Data published in the DeepSol protein solubility set.

Assay: soluble on expression in E. coli; label from the status in PepcDB or PDB records

Row | Sequence | soluble on expression in E. coli
1 | MAHHHHHHMFFRTCCRLMVRPTALQRCKSVNSVTLVGVVHDIQSGFVYEDAVTQFTLTTTSIDTTHPTQEVVVEKDHHTIRCFGELFSAEVKQKVKEGNVVCVNGRLRLSPQLEPSCNKHFYFPYIQVQPPHGQVAVIHGDRRNTPASVNPTAEEIPAESESGTTSKTS | not soluble
2 | ILGYSYGYNGMEANVSKSDYEKHMSDLDTKKIKQDIKKAEKEADITIVMPQMGIEYQKKPTTEQVMLYHSMIKWGADIIFGGHPHVVEPSEVIKKDGQKKFIIYSMGNFISNQRLETVDDIWTE | not soluble
3 | YWGPLDVGEAKSLPGMEDPKLVYIPSIAPSNMVLYRGDKYSELDGKILVGALKLTHINVVGINDGKLTESQRLLEKLGERIRDITISPDGYIYFSTDSGKIFRLTEQ | not soluble
4 | MFAHPANTSAASDNVSKAKLLKMLNAERKENASKDQLIESLKNQLASGGSQKIMEFYRTSVEDLQTKVMRQETIIMEQSKTIEMLSIERSKSVKVHEDQINEMQEVMDKKVKQLEENYEERLKESGNESTASFDKESRDDSLEDFVEVSINEILETAESKRKLKERINHMETHCMTMLKETMEDNKLYSAQLKDQKKQFEVLQNEKAQWEKKEIQQTMELENLRLRLRDIVSLENLIL | not soluble
5 | MSLKPVKPPRINGRVPVLSAQEAVNYIPDEATLCVLGAGGGILEATTLITALADKYKQTQTPRNLSIISPTGLGDRADRGISPLAQEGLVKWALCGHWGQSPRISELAEQNKIIAYNYPQGVLTQTLRAAAAHQPGIISDIGIGTFVDPRQQGGKLNEVTKEDLIKLVEFDNKEYLYYKAIAPDIAFIRATTCDSEGYATFEDEVMYLDALVIAQAVHNNGGIVMMQVQKMVKKATLHPKSVRIPGYLVDIVVVDPDQTQLYGGAPVNRFISGDFTLDDSTKLSLPLNQRKLVARRALFEMRKGAVGNVGVGIADGIGLVAREEGCADDFILTVETGPIGGITSQGIAFGANVNTRAILDMTSQFDFYHGGGLDVCYLSFAEVDQHGNVGVHKFNGKIMGTGGFIDISATSKKIIFCGTLTAGSLKTEITDGKLNIVQEGRVKKFIRELPEITFSGKIALERGLDVRYITERAVFTLKEDGLHLIEIAPGVDLQKDILDKMDFTPVISPELKLMDERLFIDAAMGFVLPEAAHEGGSHHHHHH | soluble
6 | MQHSLGLIEVSGMSLAITVADVMAKTAQIRLIGVERTIGSGWMLVKIAGDVAAVRTALSAGEETARAHQGFVACTTIARPAKGTGELVSTTKPPRAEPVQKITVLPAVALTASAAHTTTGPESVQEDPDAEKAVPPIREAVEGSTGNIIQVDAINDPVETAREISKPNASAKSPPAEYGEKQSVATVKAFPVMGDIATDLDIPTASARSVAVAQQVKPGISLHQFHYQEKPDDETADAGSQQTGETKQAVAISAKLLVTCKICGDPSCPRHKGQPRSRCIHNQKSVLR | not soluble
7 | SLLDTLLINIGQLLTMDQEDGLLRREAMNTLPVIENGAVGIENGVITFVGTAEEAKGLQAKEVIDCGGKMVSPGLVDPHTHLVFGGSRENEIALKLQGVPYLEILEQGGGILSTVNATKQSSKEELVQKAKFHLDRMLSFGVTTVEAKSGYGLDDETEWKQLEATAQLQKEHPIDLVSTFLGAHAVPKEYKGRSKEFLQWMLDLLPEMKEKQLAEFVDIFCETGVFSVEESKEFLLKAKELGFDVKIHADEIDPLGGAEAAAEIGAASADHLVGASDKGIEMLANSNTVATLLPGTTFYLNKESFARGRKMIDEGVAVALATDFNPGSCPTENIQLIMSIAMLKLKMTPEEVWNAVTVNSSYAINRGDVAGKIRVGRKADLVLWDAYNYAYVPYHYGVSHVNTVWKNGNIAYTRGEQSWSTATI | soluble
8 | MGSDKIHHHHHHMSDLLEWQDLAQLPVSIFKDYVTDAQDAEKPFIWTEVFLREINRSNQEIILHIWPMTKTVILGMLDRELPHLELAKKEIISRGYEPVVRNFGGLAVVADEGILNFSLVIPDVFERKLSISDGYLIMVDFIRSIFSDFYQPIEHFEVETSYCPGKFDLSINGKKFAGLAQRRIKNGIAVSIYLSVCGDQKGRSQMISDFYKIGLGDTGSPIAYPNVDPEIMANLSDLLDCPMTVEDVIDRMLISLKQVGFNDRLLMIRPDLVAEFNRFQAKSMANKGMVSRDE | not soluble
9 | MTATLSWIDEITMTELERNPYPVYERLRAEAPLAYVPVLGSFVATTADLCRTIANSPDFEGIITKAGGRTFGHPAVIGVNGEIHRDLRSMVDPALQPSEVDRWVDGLVRPIARRYVEQFENDGKADLVSQYCEPVSVRALGDLLGLNEVSSDTLRDWFHRLSNSFTNAGVDADGEFTNPEGFVQGDEAKAEIRAVVDPLIDKWTVHPDDSAISHWLHDGMPEGQVRDREYIYPTLFVYLLGAMQEPGHGMASTLVGLFTRPEQLEAVIDEPALIPRAISEGMRWTSPIWSATARISTKDVTLGDVFLPEGSVVLLSYGSANHDTAVYDAPSDYDMTRPPLPHLAFGSGNHACAGIYFANHVCRIGLEELFEAIPNLERDSGADVEFWGWGFRGPTALRATWEV | not soluble
10 | MAWAPPMAKRRSAPATQAAARTPGWTLGGLATILKGFSGQVQFVPEDYPVWLNRVLAEAQTGRGTVGVLGGLHGDFPPLVSRGLLEPLDGLYARLQDRGFPQAFVELGRMGTPNQQYLPWMQATYVMVARKEALKYLPPGADLNALTYEDLKNWAKAIQEATGQRRLGFPAGPGGLIHRFLQGYLYPSYTGSQVRRFKSPEAEAMWRDFRELWRYVNPRSTAYEFMQEPLLSGEVWIAWDHTARLKDALVQRPQDFVAFPAPAGPKGRGFMPVVAGLAIPKTAPDKRAAEALVDYLTRPEVQLLTLKEVGFFPVVRARYGEDLPEGIRLLAEAVSAQSSAKDALPSLLPVGLGDKGGEFNKVYRDAFTRIVLRGEEIRRALDLEAQNLARILRETGAPCWPPDAPSTGACPVE | soluble
11 | MGSDKIHHHHHHMKTRESSVGLKFRKFNRFYTNVLGFLNEHIYDSPFSLTETRILFEIYNTPNCTAKALQDKLGLDRGYVSRIVKQFEKEDLIYKQRSKDDARHHYIFVTETGKTIYKKLEEKANEQVELMLKVINQKEQHKLAEAMAEIEAILSQSLSARASEISIRDYFLSEDLQLLIEKQRQFYAEAHGWDDTFLAYLQETFDADIEKIWIAESGGKFAGSVGLVKHDEKTVQLRWFLVDADFRGRGLGTQLLEHLVAYCQDMKFDRIFLWTVSTMAEARPLYKKFGFRISEVKQEAPLWGQQLTEERWDLELS | not soluble
12 | MKHHHHHHGKAAGVTLGEVWKRQLNMLGKQEFERYKVSDITEVDRTAARRYLKEGRTDVGISVSRGAAKIRWLHERGYLRITGRVLDLGCGRGGWSYYAAAQKEVMSVKGYTLGIEGHEKPIHMQTLGWNIVKFKDKSNVFTMPTEPSDTLLCDIGESSSNPLVERDRTMKVLENFERWKHVNTENFCVKVLAPYHPDVIEKLERLQLRFGGGIVRVPFSRNSTHEMYYISGARNNITHMVNTTSRSLLRRMTRPSGKAIIEGDVFLPTGTRSVASEAGTIDHEALKLRVDQIKAEYSKT | soluble
13 | IGNGGAERGTRNTLDIRTVAHREADGSYRIKGEKFYSTGALFAHWVSIKALDDNGKTVMAFIERGTQGLRIVDDWSGFGQRTTASGTVLLDDVSVPAKQVVP | not soluble
14 | MSLNILVIGTGAIGSFYGALLAKTGHCVSVVARSDYETVKAKGIRIRSATLGDYTFRPAAVVRSAAELETKPDCTLLCIKVVEGADRVGLLRDAVAPDTGIVLISNGIDIEPEVAAAFPDNEVISGLAFIGVTRTAPGEIWHQAYGRLMLGNYPGGVSERVKTLAAAFEEAGIDGIATENITTARWQKCVWNAAFNPLSVLSGGLDTLDILSTQEGFVRAIMQEIRAVAAANGHPLPEDIVEKNVASTYKMPPYKTSMLVDFEAGQPMETEVILGNAVRAGRRTRVAIPHLESVYALMKLLELRTSKSLWGNEGHHHHHH | soluble
15 | MGSDKIHHHHHHMDNLQFTHAIARIRVLETRLLDRSKIERMIDSSSAEEALKILGETEYLNYMSNVRSPEDYEILLSEELKRLYTLLYSISPERSIIDIMALRYDYHNLKVMLKGKYLEKDLTYLLIPVGTISNDKLKQIFATEFYKELTPLMREALEKAESEYEGDKDPQKIDLILDSYAYKEILSKSEEVNEKFINDYIKMSIDLNNIRALLRAKAQNKHRKFFEAIILDGGTIDKKTLISYESETSDSIANKLSYTPYEKIIRLGLEEYSKTNNISYFEKLSENYIMDFIKKAKQVSFGVEPLIGYIIAKETEIKIIRIIMVGKLNSIAPNIIRERLRDAYV | not soluble
16 | MTVIQTHGLTKRYGRVVAVEDLNLSVREGEVYGLLGPNGSGKTTTILMLLGLTEPTSGEARVLGFDPMREPLKVKSRVGYLPDQVGFYGELSAWENLRYTTRLLGLPDKEAEARIEEVLKRMGLWEVRDRKVAAFSRGMRQRLGLAEVLLKRPKVAILDEPTLGLDPEAAREFLDLIKGLKAEGITVLLSSHLLHQVQEVCDRVGLFHKGRLALEGTVAELAHRVLGGQYEILLEGAPGLEGALEAVEGVSRVEAEGGRYRVLATRDLRPELARLVVERGPLYALSLRQPSLDEIYAHYFKEVAHAA | soluble
17 | MHHHHHHSSGRENLYFQGASEALKVVARCRPLSRKEEAAGHEQILTMDVKLGQVTLRNPRAAPGELPKTFTFDAVYDASSKQADLYDETVRPLIDSVLQGFNGTVFAYGQTGTGKTYTMQGTWVEPELRGVIPNAFEHIFTHISRSQNQQYLVRASYLEIYQEEIRDLLSKEPGKRLELKENPETGVYIKDLSSFVTKNVKEIEHVMNLGNQTRAVGSTHMNEVSSRSHAIFIITVECSERGSDGQDHIRVGKLNLVDLAGSERQNKAGPNTAGGAATPSSGGGGGGGGSGGGAGGERPKEASKINLSLSALGNVIAALAGNRSTHIPYRDSKLTRLLQDSLGGNAKTIMVATLGPASHSYDESLSTLRFANRAKNIKNKPRVNEDPKDTLLREF | soluble
18 | MIAKISHGSSLYGVLAYNQLKVDERHADVLFTSRIIEPQGDNPYTIGHLSRSFGDYLTANRKTEKPVLHISLNPDPKDCLSEERFVSLAEEYMRRMGFGDQPYIVYRHNDIGREHLHIVSVRVDETGRAISDSYEHGRSMKVCRELERQFGLVLATPKQWKEGLPLSPVGYGDGNLKGQLAGVIRPIAREWRFRTLGEYRAVLSLYGITVDEVKGEYGGREYHGLTYSATDREGNKIGKPFKSSVFGKETGVAALERRMHNAAAWEKTHKEVAAATAGKVAAAMQTAGHDRAQFERELMRQGIGVVFRQNETGRIYGATFIDHAAKAVFNGSRLGKEFSAGVFNDLFAGQEGIHLPQPSAEVEHPTRQQEHTDISQWDGQDTGYRPDHKDGTTQNVAAAFNLFAPVPGGASGDQPVPLRKRKKKRKYGRQQLEHHHHHH | not soluble
19 | MGSDKIHHHHHHLEAGMNYGVWNNKGGVGKSFLSFTLALEHAHRHPERKILLADMCPQANLSEIILGGNGKGNANLEARLAQDKRKTIGGYFDERIASPHQVTGNETSYLIAASDYNQELPDNVYLLCGDPSLELQAQVINQIGSQTLPADAWKNVHMWLKDLINACARQLGREGTSVFIDCNPSFSAYTELAIVASDRLILPCSCDGSSARAVHNVENLVFDGSAYYGDKSFSKMCERFGMALPVIHSVVLNRSTLYNKDASKAFSAMFDEIKRTANDFYKRSPGSFVAGGPAFMVMPDNHSVAIVSSHLGKPLYAIKPGKYQVYEVNPQINPEPLNRYKEAIEGMEAVLL | not soluble
20 | MSPWQHYQKDLTRDGFSHDPAQEIAVKALQRVYEDLTAAEEPNSLFGKLFTSFGLTSAPAPTKGLYLWGGVGRGKTYLMDTFFDTLPGNQKLRAHFHRFMHQLHLDLDALKGTRDPLLVIAKQMAAKYRVICFDEFFVSDITDAMLLGTLFQALFKEGVVLVATSNIIPDDLYKNGLQRARFLPAIALINQHCEVLNVDSGIDYRLRTLEQAEIYHHPLDEQADTNLLRYFGQLAPEAEISTEAIEIEGRAISIRQQAQGVLLADFRALCDGPRSQRDYMELARIYHTVLVSGIEQMGAFLTGDDIARRFLAMVDEFYERNVKLIVSAQVPLEDIYADGLLSFEFRRCRSRLIEMQSHDYLKSEHLPLEHHHHHH | not soluble
